From a protein production outcome set (Wang et al. 2014)

Test: label from the status in PepcDB records

Question: Which protein production does the source give for “PTNIHKIHEVQKKLQEEVSIVLIDIADIIVNPKKENGYSRDLYTLNSLIDSSISETYDNINNTLLSDTRFFLEHMDIIKSQRDILENLYSYVSQLNSTPPQAHILSAFIHKIGYTEFEAETGNLLLEELKRLMISMKNQPLPVDRTEFENRAILFLCLTELKQFLVNRKHAQML” here?
Answer: Its protein production is “not failed”.

Question: Which protein production does the source give for “MEGITYMNLGTNDKLPKLNTHYSSLSKRLMASFFDNVIISALSYLLSIIIFIIMTIFSFRYLDEFINHIYLIYFSLHFLVAFFYYITMESSSFQGTLGKLIADIKVVKLNGDKVSIFQAFCRFFIANILLYPAYFFYALVLYNVSNQIIINHSCNPYKINSFYFYGLISSSLIYLIYKLVMLITILISNKKQGIHDILIKTLVIIR” here?
Answer: The protein production was “failed”.

Question: With “MTKTALVLGTVATLAVASVAAPAPAEARNGIGPFIGGLAAGALIAGVASNAYAYGPGYGYYGGGPYYGGGPYYGYAPRYVGYYGGPAYYGGGYGWGGPRYYRPRPVYYGYRSYYRPYRGGYYGAPVIRAGYGPGWGGHRHWHHHRHW” as the sequence, how does the protein production read?
Answer: The protein production was “failed”.

Question: With “MSSEEDYFDELEYDLADEVNEEKEDIQTKKLTTVNCQTEKFNPFEILPESIELFRTLALISPDRLSLSETAQILPKIVDLKRILQQQEIDFIKLLPFFNEIIPLIKSNIKLMHNFLISLYSRRFPELSSLIPSPLQYSKVISILENENYSKNESDELFFHLENKAKLTREQILVLTMSMKTSFKNKEPLDIKTRTQILEANSILENLWKLQEDIGQYIASKISIIAPNVCFLVGPEIAAQLIAHAGGVLEFSRIPSCNIASIGKNKHLSHELHTLESGVRQEGYLFASDMIQKFPVSVHKQMLRMLCAKVSLAARVDAGQKNGDRNTVLAHKWKAELSKKARKLSEAPSISETKALPIPEDQPKKKRAGRKFRKYKEKFRLSHVRQLQNRMEFGKQEQTVLDSYGEEVGLGMSNTSLQQAVGATSGSRRSAGNQAKLTKVMKHRISEANQQADEFLISLGHNTEQPNLSPEMVQMHKKQHTNPEEETNWFSGHG” as the sequence, how does the protein production read?
Answer: The protein production was “failed”.

Question: Which protein production does the source give for “MKRSIEDTPIVLIGAGNLATNLAKALYRKGFRIVQVYSRTEESARELAQKVEAEYTTDLAEVNPYAKLYIVSLKDSAFAELLQGIVEGKREEALMVHTAGSIPMNVWEGHVPHYGVFYPMQTFSKQREVDFKEIPFFIEASSTEDAAFLKAIASTLSNRVYDADSEQRKSLHLAAVFTCNFTNHMYALAAELLKKYNLPFDVMLPLIDETARKVHELEPKTAQTGPAIRYDENVIGNHLRMLADDPAMQRLYELLSRSIHERQ” here?
Answer: The protein production was “not failed”.

Question: Which protein production does the source give for “AIVHEMLKDTHPQYAYRSGMSAQEFTQWQDGVRAAMVEIMKFPEIKRQPSPVCVKTEKKEGYILEKWEFYPFPKSVSTFLVLKPEHLKGAVPGVLCIPGSGRTKEGLVGEPGICDKLTEDYNNPKVSMALNMVKEGYVAVAVDNAAAGEASDLECYDKGWNYDYDVVSRFLLELGWSWLGYTSYLDMQVLNWMKAQSYIRKDRIVISGFSLGTEPMMVLGVLDKDIYAFVYNDFLCQTQERAVVMTKPDKENRRPFPNSIRHLIPGYWRYFNFPDVVASLAPRPIIFTEGGLDRDFRLVQSAYAASGKPENAEFHHYPKFADKAVRKDVEHLDEGLDSKTYFEAVNVDPPSHYFKNELVIPWLRKVLK” here?
Answer: Its protein production is “not failed”.

Question: For “AGGRERRVAVLFCDLRDFTRIAEHRLPYDTVFLLNRYFEVVGEAVEGSGGVVDKFIGDGALAIFGLKTPLPEACRQALSAAARLSQGIRALNQTFEGELEQPLRLAIGLHAGPAIIGEMGYGQATSLTVVGDTINTASRLEGLAKEHDVELAVSAELVERAGLSFEGHRRLEIGLRGRKATLETWIIGDAAQLSLSLP”, which protein production is on record?
Answer: The protein production was “failed”.

Question: For “MSRPDQAARRRAIAAELHVSPTFDARDEAERRIGFVADYLRTAGLRACVLGISGGIDSSTAGRLAQLAVERLRASGYDARFVAMRLPYGAQHDEADARRALAFVRADETLTVDVKPAADAMLAALAAGGLAYLDHAQQDFVLGNIKARERMIAQYAVAGARNGVVIGTDHAAESVMGFFTKFGDGGADVLPLAGLTKRRVRALARMLGADEPLVLKTPTADLETLRPQRPDEHAYGITYEQIDDFLEGKPMDDAVAETVLRFYDATRHKRALPYTMFDWPGHPA”, which protein production is on record?
Answer: The protein production was “not failed”.

Question: With “GNPEIKGRRRQIAQEIAYEDTSSQIKHASAVVSNPKDIAVAIGYMPEKYKAPWIIAMGVNLRAKRIIAEAEKYGVPIMRNVPLAHQLLDEGKELKFIPETTYEAVGEILLYITSLNAQNLENKNINQFDNL” as the sequence, how does the protein production read?
Answer: Its protein production is “not failed”.

Question: With “TGNVCIEEIDVDGKFIRLKNTSEQDQPMGGWEMIRKIGDTSVSYKYTSRYVLKAGQTVTIWAANAGVTASPPTDLIWKNQNSWGTGEDVKVILKNSQGEEVAQRSTVFKTTIP” as the sequence, how does the protein production read?
Answer: The protein production was “failed”.

Question: With “MKLAIIIPVYNAEETIKRAILSVDTSVPYEIICINDGSTDQTQHVLTELQQKHPHIKVIHQSNQGAARSRNVGLEAMSEDVDAFLFLDADDEFLPSRIDLMVNAFNKNKETDVVIGQMARDVNGEWQVISTHQSMVKDAIVTLDRKPDILQSIGPGAKLFSSKYAGLRFDEDVVFCEEHTFIVKAFSKARDIQLIPNIVYGYNEREGSVTAQRADTFLPYMSDALKVRQRVMELLLLLDEKIYYSYRMDNLIVSYLIQAHLKKNNKITQSLLESVIEYMKAMQHTHYSGEAMFRIVRAVEQSATHWTKPLYLQWKKALSEVGIGRPGLIRFKLQVIPKKISFSGKESLKRIFKK” as the sequence, how does the protein production read?
Answer: Its protein production is “failed”.

Question: With “MELREWQSKIAEKIVEALRNNFLVSLQAPTGSGKTLFALYTALKVKPKVAFVVRTHNEFFPVYRELSLHFKDKKYGFLVGKSSACVFSSSDVDAQDIYCNGCEIFNASAVTVTDSPKVSLNKLKEEGKKLGFCPYYSLLETIKTADVILLTYPYLFIPWLRESLDINWEDYVVIVDEAHNIENVSNIEEKKLNKRIIEMAISQSHSQNVKVILERLKENVEKAVYSEDKYILIEKDKLDNILPSNEEIEILSEEYDEIRKIMIKNKTVSRNYLGSILRFFDLVNDEGIRVFSYSGSLIAKYIIPSYFTDILNDEKITYMLMSGTMQPLDYLRNIIGIKRKILYIDAEKVMKKRLTGTYECLISIDVTTTYSLRSEQMARKYASYLLKIFYNSRRHVLAIFPSYEFMRIVSKFLNIRYLAEDTETSIEEIMSNLKKEKTIIMGIARGKLAEGIEIVENGSSLISDVAMVGIPYPPIDDYLKIRVEEISKILKKDISNELISIQALIAVKQSIGRAIRGPTDNATIWLLDKRYDSLWWKKELNCLNARKIKL” as the sequence, how does the protein production read?
Answer: Its protein production is “failed”.

Question: With “LRKMIALIHKDYAKNLRLETLASVFNYNRAYLGKLFKNYTGEYFNTYLDKVRIENGKRLLQKGYKVYEVAEKIGYANVDYFHRKFKKYVGVSPSTFRKRHDHLQVYHD” as the sequence, how does the protein production read?
Answer: Its protein production is “failed”.

Question: With “EIESRELADIPVLHAYPVGQKDTPLPCVIFYHGFTSSSLVYSYFAVALAQAGLRVIMPDAPDHGSRFSGDAARRLNQFWQILLQSMQEFTTLRAAIAEENWLRDDRLAVGGASMGAMTALGITARHPTIKCTASMMGSGYFTSLARSLFPPLIPETAAQQNEFNNIVAPLAEWEATNHLEQLGDRPLLLWHGLDDDVVPADESLRLQQALSETGRDKLLTCSWQPGVRHRITPEALDAAVTFFLQHL” as the sequence, how does the protein production read?
Answer: Its protein production is “failed”.

Question: Which protein production does the source give for “MPLGHLFDKSYDEMHCNQKNWEMAERKLMEDAVQSALSKQNLKKEDIDIFLAGDLLNQNVTANYVARHLKIPFLCLFGACSTSMESIAISSALIDGGFAKRALAATSSHNATAERQFRYPTEYGGQKPGTATSTVTGSGAVVLSQQPGGIKITSATVGRVIDLGITDSQDMGSAMAPAAADTIKQHLEDLGRTPDDYDLILTGDLSGVGSPILKDLLKEEGINVGTKHNDCGLMIYTPDQQVFAGGSGCACSAVVTFAHIFKEIEAGRLNRVLVVATGALLSPTIIQQKESIPCIAHGVVFERAERGNALEHHHHHH” here?
Answer: Its protein production is “not failed”.

Question: For “MYKCLIISILTWFSCIVSVYAQAIPKEARNYLEEGKIYYDGANYLKALDSYLGAYKFVPNDPGVNYSIALCYIQTYSYDKALTYLIPAKKAGIKDPLLDYYMGLAYHANSNIDEALKSLTAFQSTLRSSDKELTAQTAKYITYCNNAKTLMLTPVKMTITNLGASVNSAYPDYNPAISVDESTIIYTSRRPNSTGGLISEMDGHYFEDIYMSNKQTNNSWGTSIQIDQTINTTSHDACVGLSSEGQTMIVYKDDGGGDLYYSNLSGQNWSKPISFGKAINTDGWEACGNFSPDGNYLFFVSNKKGGFGGTDIYYAVKNAAGVWGAPVNMGPEINTKEDEFSPYLHADGKTFYFSSQAHTSMGGFDIFQSTIDLSMQPIAVKSKPENLGYPINTVGDEIYFVWSADNKRAYFSSAREGGLGDKDLYLLERPVAKAALVLLKGTISDCKTKEFIQASITVTDIESGKLIGKYVSNSSTGKYIVTLPAGKNYSITVEAKGYLFHSKNINIPKLEEFKEIDDVICLDKIDIGTTIVLNNVFFDVNKSTLRKESETELDKLFDILSKNPKIKIEVAGHTDSDGDTQANLTLSDARAHTVKDYLIGKGISADRIIYVGHGEGKPVVPNDTPENKQLNRRTEIKILEN”, which protein production is on record?
Answer: The protein production was “failed”.

Question: Which protein production does the source give for “MKLTPKELDKLMLHYAGELAKKRKEKGIKLNYVEAVALISAHIMEEARAGKKTAAELMQEGRTLLKPDDVMDGVASMIHEVGIEAMFPDGTKLVTVHTPIEANGKLVPGELFLKNEDITINEGKKAVSVKVKNVGDRPVQIGSHFHFFEVNRCLDFDREKTFGKRLDIASGTAVRFEPGEEKSVELIDIGGNRRIFGFNALVDRQADNESKKIALHRAKERGFHGAKSDDNYVKTIKE” here?
Answer: The protein production was “failed”.

Question: Which protein production does the source give for “MHNFEEELTCPICYSIFEDPRVLPCSHTFCRNCLENILQASGNFYIWRPLRIPLKCPNCRSITEIAPTGIESLPVNFALRAIIEKYQQEDHPDIVTCPEHYRQPLNVYCLLDKKLVCGHCLTIGQHHGHPIDDLQSAYLKEKDTPQKLLEQLTDTHWTDLTHLIEKPKEQKSHSEKMIQGDKEAVLQYFKELNDTLEQKKKSFLTALCDVGNLINQEYTPQIERMKEIREQQLELMALTISLQEESPLKFLEKVDDVRQHVQILKQRPLPEVQPVEIYPRVSKILKEEWSRTEIGQIKNVLIPKMKISPKRMSCSWPGTPVYSVAWGPDSEKVLYTAGKQLIIKPLQPNAKVLQWKAHDGIILKVDWNSVNDLILSAGEDCKYKVWDSYGRPLYNSQPHEHPITSVAWAPDGELFAVGSFHTLRLCDKTGWSYALEKPNTGSIFNIAWSIDGTQIAGACGNGHVVFAHVVEQHWEWKNFQVTLTKRRAMQVRNVLNDAVDLLEFRDRVIKASLNYAHLVVSTSLQCYVFSTKNWNTPIIFDLKEGTVSLILQAERHFLLVDGSSIYLYSYEGRFISSPKFPGMRTDILNAQTVSLSNDTIAIRDKADEKIIFLFEASTGKPLGDGKFLSHKNEILEIALDQKGLTNDRKIAFIDKNRDLCITSVKRFGKEEQIIKLGTMVHTLAWNDTCNILCGLQDTRFIVWYYPNTVYVDRDILPKTLYERDASEFSKNPHIVSFVGNQVTIRRADGSLVHISITPYPAILHEYVSSSKWEDAVRLCRFVKEQTMWACLAAMAVANRDMTTAEVAYAAIGEIDKVQYINSIKNLPSKESKMAHILLFSGNIQEAEIVLLQAGLVYQAIQININLYNWERALELAVKYKTHVDTVLAYRQKFLETFGKQETNKRYLHYAEGLQIDWEKIKAKIEMEITKEREQSSSSQSSKSIGLKP” here?
Answer: The protein production was “failed”.

Question: With “MGTPGEGLGRCSHALIRGVPESLASGEGAGAGLPALDLAKAQREHGVLGGKLRQRLGLQLLELPPEESLPLGPLLGDTAVIQGDTALITRPWSPARRPEVDGVRKALQDLGLRIVEIGDENATLDGTDVLFTGREFFVGLSKWTNHRGAEIVADTFRDFAVSTVPVSGPSHLRGLCGMGGPRTVVAGSSDAAQKAVRAMAVLTDHPYASLTLPDDAAADCLFLRPGLPGVPPFLLHRGGGDLPNSQEALQKLSDVTLVPVSCSELEKAGAGLSSLCLVLSTRPHS” as the sequence, how does the protein production read?
Answer: Its protein production is “failed”.

Question: For “MIELDYLTIAFGGAIGAVLRYLVSRTINSLLPFSYIPLGTIIVNSVGSFFLSFLMFAAIEKVPLSKEAILFFGTGLLGAFTTFSTFTYETLSLIEESPARGVAYALANLLFAFTCAYFGMILGRGKV”, which protein production is on record?
Answer: The protein production was “failed”.
